We go through 2 molecules from patent publication US20240417482A1 (CONCEPT TO MEDICINE BIOTECH, published 2024).

For assay [1], the target named is human 4-1BB expressed on cells (human) (UniProt Q07011). The assay can be described thus: flow cytometry on HEK293-4-1BB cells, PE anti-human IgG, MFI. (In flow cytometry, cells or beads pass a laser one at a time.)
Assay [2] concerns the target T1, human 4-1BB-His protein (human, UniProt Q07011 24-186).
T1 construct: Recombinant His-tagged protein; also called human 4-1BB-his tag; recombinant 4-1BB protein; not shown: His tag
The experiment in a line: ELISA, plate coated with human 4-1BB-His at 0.5 ug/ml, anti-human IgG-HRP detection, OD450 (panel Human 4-1BB ELISA). In general terms: ELISA stands for enzyme-linked immunosorbent assay.
Target sequence in this assay (Q07011 24-186 limits assumed): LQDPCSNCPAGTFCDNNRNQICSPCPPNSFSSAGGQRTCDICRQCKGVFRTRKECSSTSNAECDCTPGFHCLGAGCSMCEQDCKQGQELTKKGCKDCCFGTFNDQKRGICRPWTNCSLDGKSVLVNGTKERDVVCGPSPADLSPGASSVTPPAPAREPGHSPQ

Assay [3] deals with T1, human 4-1BB-His protein. The experiment in a line: ELISA, plate coated with human 4-1BB-His, anti-human IgG-HRP. On the procedure: Briefly, microtiter plates were coated with human 4-1BB-His protein at 0.5 μg/ml in PBS, 100 μl/well at 4° C. overnight, then blocked with 150 μl/well of 1% BSA. […] The plates were washed with PBS/Tween and then incubated with Anti-Human IgG (H&L) (GOAT) Antibody Peroxidase Conjugated for 30 mins at 37° C. After washing, the plates were developed with TMB substrate and analyzed by spectrophotometer at OD 450 nm.

In assay [4] the target is T2, cynomolgus 4-1BB-His protein (cynomolgus, UniProt A9YYE7 24-186).
T2 construct: Recombinant His-tagged protein; also called cyno 4-1BB antigen; not shown: His tag
T2 sequence: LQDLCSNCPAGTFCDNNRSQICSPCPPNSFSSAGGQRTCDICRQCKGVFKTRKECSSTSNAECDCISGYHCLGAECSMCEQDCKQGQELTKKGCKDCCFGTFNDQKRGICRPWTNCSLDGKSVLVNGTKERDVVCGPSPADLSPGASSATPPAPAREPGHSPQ
The experiment in a line: ELISA, plate coated with cynomolgus 4-1BB-His, anti-human IgG-HRP. The protocol:
Microtiter plates were coated with cynomolgus 4-1BB-His protein at 0.5 μg/ml in PBS, 100 μl/well at 4° C. overnight, then blocked with 150 μl/well of 1% BSA. […] The plates were washed with PBS/Tween and then incubated with Anti-Human IgG (H&L) (GOAT) Antibody Peroxidase Conjugated for 30 mins at 37° C. After washing, the plates were developed with TMB substrate and analyzed by spectrophotometer at OD 450 nm.

Assay [5] addresses T1, human 4-1BB-His protein. The experiment in a line: SPR, Biacore T200, antibody captured on Protein A chip, human 4-1BB-His as analyte. On the procedure:
A serial dilution of human 4-1BB-his tag protein was injected over captured antibody for 30 s at a flow rate of 30 μl/min. The antigen was allowed to dissociate for 360 s. All the experiments were carried out on a Biacore T200. Data analysis was carried out using the Biacore T200 evaluation software.
(In general: Surface plasmon resonance follows binding to a sensor surface in real time, without labels.)

Assay [6] deals with T3, mouse 4-1BB-His protein (mouse, UniProt P20334 24-187).
T3 construct: Recombinant His-tagged protein; also called mouse 4-1BB antigen; not shown: His tag
T3 sequence (looked up): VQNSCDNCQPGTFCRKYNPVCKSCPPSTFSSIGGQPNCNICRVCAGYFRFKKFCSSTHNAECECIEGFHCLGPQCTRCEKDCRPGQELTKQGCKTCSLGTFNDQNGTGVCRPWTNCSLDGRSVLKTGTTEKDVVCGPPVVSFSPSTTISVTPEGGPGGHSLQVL
The assay can be described thus: ELISA, plate coated with mouse 4-1BB-His 0.5 µg/ml. On the procedure: Microtiter plates were coated with mouse 4-1BB-His protein at 0.5 μg/ml in PBS, 100 μl/well at 4° C. overnight, then blocked with 150 μl/well of 1% BSA. […] The plates were washed with PBS/Tween and then incubated with Anti-Human IgG (H&L) (GOAT) Antibody Peroxidase Conjugated for 30 mins at 37° C. After washing, the plates were developed with TMB substrate and analyzed by spectrophotometer at OD 450 nm.

Assay [7] concerns the target T4, human OX40 protein (human, UniProt P43489 29-214, limits assumed).
T4 construct: Coated protein in ELISA
T4 sequence (looked up): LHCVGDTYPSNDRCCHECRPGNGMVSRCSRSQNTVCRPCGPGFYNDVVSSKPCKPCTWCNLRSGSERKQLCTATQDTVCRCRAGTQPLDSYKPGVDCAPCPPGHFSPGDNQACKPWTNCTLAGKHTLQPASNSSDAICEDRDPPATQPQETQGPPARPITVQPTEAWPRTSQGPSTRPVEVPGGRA
The assay can be described thus: ELISA, plate coated with human OX40 0.5 µg/ml. On the procedure:
(§1) Briefly, microtiter plates were coated with human CD40 protein or human OX40 protein at 0.5 μg/ml in PBS, 100 μl/well at 4° C. overnight, then blocked with 150 μl/well of 1% BSA. […] The plates were washed with PBS/Tween and then incubated with Anti-Human IgG (H&L) (GOAT) Antibody Peroxidase Conjugated for 30 mins at 37° C. After washing, the plates were developed with TMB substrate and analyzed by spectrophotometer at OD 450 nm.

In assay [8] the target is T5, human CD40 protein (human, UniProt P25942 21-193).
T5 construct: Coated protein in ELISA
T5 sequence (P25942 21-193 limits assumed): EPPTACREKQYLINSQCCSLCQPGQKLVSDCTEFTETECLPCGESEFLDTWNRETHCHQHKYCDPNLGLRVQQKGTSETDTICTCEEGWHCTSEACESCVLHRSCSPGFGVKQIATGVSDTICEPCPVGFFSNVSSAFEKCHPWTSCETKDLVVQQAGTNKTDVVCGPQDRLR
The experiment in a line: ELISA, plate coated with human CD40 0.5 µg/ml. The protocol: as §1

By EC50 (read off the curve) is commonly meant the concentration at which the effect is half-maximal. High values mean a less potent agent, low ones a more potent agent. As a reminder, the EC50 is the concentration that produces a half-maximal response. Higher therefore signals lower potency in that assay. In general, Kd refers to a measure of binding affinity in units of concentration. What is called koff is the rate constant with which the complex falls apart. A higher koff goes with fast dissociation. Broadly, the kon is the rate constant with which the complex forms. Lower therefore signals slow association.

Sequence of human 4-1BB expressed on cells (human) (Q07011 24-255): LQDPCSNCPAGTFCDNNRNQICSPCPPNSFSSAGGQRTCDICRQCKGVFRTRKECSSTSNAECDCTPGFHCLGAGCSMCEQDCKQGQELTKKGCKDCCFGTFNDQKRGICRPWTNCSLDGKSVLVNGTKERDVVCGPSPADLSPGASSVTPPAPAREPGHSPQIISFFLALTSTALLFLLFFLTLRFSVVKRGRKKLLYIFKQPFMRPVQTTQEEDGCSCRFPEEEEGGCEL

Urelumab (antibody): the results for the EC50 (read off the curve) in assay [1] and in assay [2] were 2 nM and 10 ng/mL, respectively.

B1: B31 chimeric mAb (VHH)
VHH: QVQLVESGGGLVQAGGSLRLSCAASGDIFSIMFWYRQPQGKQREYVAHITSNGRTNYADSVTGRFTISRGNNDNTMYLQMDNLKPQDTAVYYCAADDATNTRTYWGQGTQVTVSS
notes: Alpaca VHH tested as 'chimeric mAb' expressed in 293F cells, purified by protein G, detected with anti-human IgG and captured on Protein A; also called B31 chimeric antibody
Consider B1, for which the EC50 in assay [3] was found to be 2.42 ng/mL; in assay [4], 4.06 ng/mL. In addition, the EC50 (read off the curve) in assay [1] amounted to 3 nM. This molecule registered a Kd in assay [5] of 3.16 nM. In assay [5], the koff amounted to 0.0048 s⁻¹. This molecule also yielded a kon in assay [5] of 1.52e+06 M⁻¹ s⁻¹. Moreover, the binding result in assay [6], in assay [7] and in assay [8] was “no binding” each time.
